The values that follow come from article PMC4005678.

The target in the series is Klf4 ZnF1-3 DNA-binding domain (mouse) (UniProt Q60793). Nature of the series: fluorescence polarization. As to conditions: FP: 20 mM Tris-HCl pH 7.5, 150 mM NaCl, 5% (v/v) glycerol, 0.5 mM TCEP, ~22 C, probe 10 nM (WT) or 1 nM (E446A). (Fluorescence polarisation rises when a labelled molecule tumbles more slowly, as on binding a larger partner.)
Klf4 ZnF1-3 DNA-binding domain (mouse), sequence (Q60793 396-483): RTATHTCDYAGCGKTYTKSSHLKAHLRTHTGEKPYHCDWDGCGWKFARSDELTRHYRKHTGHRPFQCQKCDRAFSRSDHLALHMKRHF

“GAGGCGTGGC / TTGCCACGCCTC [Klf4 site 5caC/M]”: the binding signal (fold weaker than M/M) (5caC at position 5 of strand 1, 5mC at position 7 of strand 2) stood at 6. With “GAGGCGTGGC / TTGCCACGCCTC [Klf4 site 5fC/M]”, the binding signal (fold weaker than M/M) (5fC at position 5 of strand 1, 5mC at position 7 of strand 2) turned out to be 3.

Regarding “GAGGCGTGGC / TTGCCACGCCTC [Klf4 site 5hmC/M]”, the binding signal (fold weaker than M/M) (5hmC at position 5 of strand 1, 5mC at position 7 of strand 2) turned out to be 2. With “GAGGCGTGGC / TTGCCACGCCTC [Klf4 site C/C]”, the binding signal (fold weaker than M/M) was found to be 1.5.

In the case of “GAGGCGTGGC / TTGCCACGCCTC [Klf4 site C/M]”, the binding signal (fold weaker than M/M) (repeat series, C at position 5 of strand 1, 5mC at position 7 of strand 2) was found to be 1.5. This sequence yielded a binding signal (fold Kd vs M/M) (text: difference only ~40%, C at position 5 of strand 1, 5mC at position 7 of strand 2) of 1.4.
